Assay results reported in patent US20130109846A1 (published 2013).
Positions count from the first letter of the chain named. Names may count otherwise.

B1: 1h-239-8 (other)
VL: DIQMTQSPSSLSASVGDRVTITCRASQSIYPFLEWYQQKPGKAPKLLIYFTSRLQSGVPSRFSGSGSGTDFTLTISSLQPEDFATYYCLQNVTNPATFSQGTKVEIKR
B2: 1h-239-850 (other)
VL: B1 VL with Q27R, S28P, Y30W, T93S, N94M
B3: 1h-80-1 (other)
VL: DIQMTQSPSSLSASVGDRVTITCRASQRIGSNLAWYQQKPGRAPKLLIYWASLLQSGVPSRFSGSGSGTDFTLIISSLQPEDFATYYCQQTRSAPFAFGQGTKVEIKR
B4: 1h-99-237 (other)
VH: EVQLLESGGGLVQPGGSLRLSCAASGFTFDSANMSWARQAPGKGLEWVSWIEAPGVQTFYADSVRGRFTISRDNSKNTLYLQMNSLRAEDTAVYYCARSPFGPLYGFDYRGQGTLVTVSS
B5: 1h-99-238 (other)
VH: B4 VH with P54S, R65K, R98K
B6: 1h-99-2 (other)
VH: B4 VH with A37V, A53D, P54T, V56T, R65K, R98K
B7: 1h-99-265 (other)
VH: B4 VH with S31K, A32S, P54S, R65K, R98K
B8: 1h-79-8 (other)
VL: DIQMTQSPSSLSASVGDRVTITCRASQPIGHSLGWYQQKPGKAPKLLIYWASTLQSGVPSRFSGSGSGTDFTLTISSLQPEDFATYYCQQMLRTPFMFGQGTKVEIKR
B9: 1h-79-807 (other)
VL: B8 VL with S32T, T53D, Q55I, S56R
B10: 1h-79-806 (other)
VL: B8 VL with T53M, S56G
B11: 1h-79-809 (other)
VL: B8 VL with P28A, I48V
B12: 1h-79-802 (other)
VL: B8 VL with Q27T
B13: 1h-79-808 (other)
VL: B8 VL with S32A, K45R
B14: 1h-239-891(G41C) 40K branched PEG (other)
VL: B1 VL with Q27R, S28P, Y30W, G41C, Q55R, S56H, T93A
modifications: 40K branched PEG; engineered cysteine G41C
B15: 1h-239-8 40K linear PEG (other)
VL: B1 VL
modifications: 40K linear PEG; site of attachment not stated
B16: 1h-239-891(S60C) 30K linear PEG (other)
VL: B1 VL with Q27R, S28P, Y30W, Q55R, S56H, S60C, T93A
modifications: 30K linear PEG; engineered cysteine S60C
B17: 1h-239-891(S60C) 40K branched PEG (other)
VL: B1 VL with Q27R, S28P, Y30W, Q55R, S56H, S60C, T93A
modifications: 40K branched PEG; engineered cysteine S60C
B18: 1h-239-850 40K linear PEG (other)
VL: B1 VL with Q27R, S28P, Y30W, T93S, N94M
modifications: 40K linear PEG; site of attachment not stated
B19: 1h-239-891(K42C) 40K branched PEG (other)
VL: B1 VL with Q27R, S28P, Y30W, K42C, Q55R, S56H, T93A
modifications: 40K branched PEG; engineered cysteine K42C
B20: 1h-239-891(Q3C) 40K branched PEG (other)
VL: B1 VL with Q3C, Q27R, S28P, Y30W, Q55R, S56H, T93A
modifications: 40K branched PEG; engineered cysteine Q3C
B21: 1h-239-891(Q79C) 40K branched PEG (other)
VL: B1 VL with Q27R, S28P, Y30W, Q55R, S56H, Q79C, T93A
modifications: 40K branched PEG; engineered cysteine Q79C
B22: 1h-239-891(S9C) 40K branched PEG (other)
VL: B1 VL with S9C, Q27R, S28P, Y30W, Q55R, S56H, T93A
modifications: 40K branched PEG; engineered cysteine S9C
B23: 1h-99-238 40K linear PEG (other)
VH: B4 VH with P54S, R65K, R98K
modifications: 40K linear PEG; site of attachment not stated
B24: 1h-99-237 40K linear PEG (other)
VH: B4 VH
modifications: 40K linear PEG; site of attachment not stated
B25: 1h-99-2 40K linear PEG (other)
VH: B4 VH with A37V, A53D, P54T, V56T, R65K, R98K
modifications: 40K linear PEG; site of attachment not stated
B26: 1h-99-2 40K branched PEG (other)
VH: B4 VH with A37V, A53D, P54T, V56T, R65K, R98K
modifications: 40K branched PEG; site of attachment not stated
B27: 1h-239-896 (other)
VL: B1 VL with Q27R, S28P, Y30W, Q55A, S56R, T93Q, N94M
B28: 1h-239-890 (other)
VL: B1 VL with Q27R, S28P, Y30W, Q55A, S56R, T93A
B29: DOM21-4 (other)
VH: EVQLLESGGGLVQPGGSLRLSCAASGFTFSRYHMAWVRQAPGKGLEWVSVIDSLGLQTYYADSVKGRFTISRDNSKNTLYLQMNSLRAEDTAVYYCAEYGGAFDYWGQGTLVTVSS
notes: VH dAb
B30: DOM21-6 (other)
VH: EVQLLESGGGLVQPGGSLRLSCAASGFTFENYGMAWVRQAPGKGLEWVSNIGRAGSVTYYADSVKGRFTISRDNSKNTLYLQMNSLRAEDTAVYYCAKVQSWRTFDYWGQGTLVTVSS
notes: VH dAb

target: T1, human CD28 (human, UniProt P10747 19-220); test: cell-based or functional assay

Row | Luciferase assay (EC50) | MLR assay (EC50) | Binder
1 | 10 nM | – | B1
2 | 9 nM | 2 nM | B2
3 | 366 nM | 438 nM | B3
4 | 3 nM | 3 nM | B4
5 | 3 nM | 5 nM | B5
6 | 17 nM | 13 nM | B6
7 | 4 nM | 3 nM | B7
8 | 240 nM | – | B8
9 | 31 nM | 53 nM | B9
10 | 40 nM | 26 nM | B10
11 | 592 nM | – | B11
12 | 421 nM | 48 nM | B12
13 | 560 nM | – | B13

target: T1, human CD28; test: cell-based or functional assay; remark: another data set of the same source

Row | DC-MLR Assay (EC50 nM) | Luciferase assay (EC50 nM) | Binder
14 | 13 nM | 10 nM | B1
15 | 2 nM | – | B14
16 | 285 nM | 510 nM | B15
17 | 0.8 nM | – | B16
18 | 2 nM | 9 nM | B2
19 | 1.2 nM | – | B17
20 | 4 nM | 2 nM | B18
21 | 13 nM | – | B19
22 | 1.5 nM | – | B20
23 | 4.9 nM | – | B21
24 | 1.3 nM | – | B22
25 | 3 nM | 3 nM | B4
26 | 5 nM | 3 nM | B5
27 | 29 nM | 4.5 nM | B23
28 | 13 nM | 17 nM | B6
29 | 2 nM | – | B24
30 | 390 nM | 100 nM | B25
31 | 383 nM | 117 nM | B26

target: T1, human CD28; test: cell-based or functional assay; remark: another data set of the same source

Row | IFNγ (EC50 nM), DC-driven MLR | IL-2 (EC50 nM), DC-driven MLR | TNFα (EC50 nM), DC-driven MLR | Binder
32 | 0.3 nM | 0.3 nM | 0.3 nM | B27
33 | 0.3 nM | 0.1 nM | 0.2 nM | B28
34 | 4.6 nM | 2.4 nM | 3.6 nM | B7

target: T2, recombinant human CD28/Fc Chimera (human, UniProt P10747 19-152); test: BIAcore, CM5 chip coated with 12500 RU of CD28-Fc
T2 construct: bought from R&D Systems; Fc part of the bought chimera not given

Row | binding result | Binder
35 | binds | B29
36 | binds | B30
